Assay results: patent US20240409663A1 (CONCEPT TO MEDICINE BIOTECH, published 2024)

B1: 18C1D9 mouse monoclonal antibody (antibody, V domains shown)
VH: QVQLQQSGAELVRPGASVTLSCKASGYTFSDYEMHWVKQTPVHGLEWIGAIDPETGGTAYNQKFKGKATLTADKSSSTAYMELRSLTSEDSAVYYCTRYYSYAYWGQGTLVTVSA
VL: DVVMTQSPLSLPVSLGDQASISCRSRQSLVHSNGNTYLQWYLQKPGQSPKLLIYKVSNRFSGVPDRFSGSGSGTDFTLKISRVEAEDLGVYFCFQSIHVPYTFGGGTKLEKK
notes: mouse hybridoma antibody
B2: 52H5D3B8 mouse monoclonal antibody (antibody, V domains shown)
VH: QVQLQQSGAELVRPGASVKLSCKALGYTFTDYEMHWVKQTPVHGLEWIGAIHPGSGGTAYNQKFKGKATLTADKFSSTGYMELSSLTSEDSAVYYCTRFYSYAYWGQGTLVTVSA
VL: DVVMTQTPLSLPVSLGDQASISCRSSQSLVHSNGNTYLQWYLQKPGQSPKLLIYKVSNRFSGVPDRFSGSGSGTDFILKISRVEAEDLGVYFCSQSIHVPYTFGGGTKLEIK
notes: mouse hybridoma antibody
B3: 171F9C5 mouse monoclonal antibody (antibody, V domains shown)
VH: QVQLQQSGAELVRPGASVTLSCKASGYTFTDYEIHWVKQTPVHGLEWIGAIDPETDNTAYSQKFKGKAILTADKSSSTAYMELRSLTSEDSAVYYCTRYYSYAYWGQGTLVTVSA
VL: DVVMTQTPLSLPVSLGDQASISCRSSQSPVHRNGNTYLHWYLQKPGQSPKLLIFKVSNRFSGVPDRFSGSGSGTDFTLKISRVAAEDLGVYFCSQTTHVPYTFGGGTKLEIK
notes: mouse hybridoma antibody
B4: 52H5D3B8-1# chimeric mAb (antibody, V domains shown)
VH: QVQLQQSGAELVRPGASVKLSCKALGYTFTDYEMHWVKQTPVHGLEWIGAIHPGSGGTAYNQKFKGKATLTADKFSSTGYMELSSLTSEDSAVYYCTRYYSYAYWGQGTLVTVSA
VL: DVVMTQTPLSLPVSLGDQASISCRSSQSLVHSNGNTYLQWYLQKPGQSPKLLIYKVSNRFSGVPDRFSGSGSGTDFILKISRVEAEDLGVYFCSQSIHVPYTFGGGTKLEIK
notes: CDR3 mutant of the 52H5D3B8 chimeric mAb (human IgG1)
B5: 52H5D3B8-3# chimeric mAb (antibody, V domains shown)
VH: QVQLQQSGAELVRPGASVKLSCKALGYTFTDYEMHWVKQTPVHGLEWIGAIHPGSGGTAYNQKFKGKATLTADKFSSTGYMELSSLTSEDSAVYYCTRFYSYAYWGQGTLVTVSA
VL: DVVMTQTPLSLPVSLGDQASISCRSSQSLVHSNGNTYLQWYLQKPGQSPKLLIYKVSNRFSGVPDRFSGSGSGTDFILKISRVEAEDLGVYFCFQSIHVPYTFGGGTKLEIK
notes: as for B4
B6: 163E7D12 mouse monoclonal antibody (antibody, V domains shown)
VH: QVQLQQSGAELVRPGASVTLSCKASGYTFTDYEMHWVKQTPVHGLEWIGAIGPETGSTAYNQRFKGKAIVTADKSSSTAYMELRSLTSEDSAVYYCTRYYSFAYWGQGTLVTVSA
VL: DVVMTQTPLSLPVSLGGQASISCRSSQSLVHSNGNTYLQWYLQKPGQSPKLLIFKVSNRFSGVPDRFSGSGSGTDFTLKISRVEAEDLGVYFCFQSIHVPYTFGGGTKLEIK
notes: mouse hybridoma antibody
B7: 52H5D3B8-8# chimeric mAb (antibody, V domains shown)
VH: QVQLQQSGAELVRPGASVKLSCKALGYTFTDYEMHWVKQTPVHGLEWIGAIHPGSGGTAYNQKFKGKATLTADKFSSTGYMELSSLTSEDSAVYYCTRFYSFAYWGQGTLVTVSA
VL: DVVMTQTPLSLPVSLGDQASISCRSSQSLVHSNGNTYLQWYLQKPGQSPKLLIYKVSNRFSGVPDRFSGSGSGTDFILKISRVEAEDLGVYFCFQSIHVPYTFGGGTKLEIK
notes: as for B4
B8: 52H5D3B8-5# chimeric mAb (antibody, V domains shown)
VH: QVQLQQSGAELVRPGASVKLSCKALGYTFTDYEMHWVKQTPVHGLEWIGAIHPGSGGTAYNQKFKGKATLTADKFSSTGYMELSSLTSEDSAVYYCTRYYSFAYWGQGTLVTVSA
VL: DVVMTQTPLSLPVSLGDQASISCRSSQSLVHSNGNTYLQWYLQKPGQSPKLLIYKVSNRFSGVPDRFSGSGSGTDFILKISRVEAEDLGVYFCSQSIHVPYTFGGGTKLEIK
notes: as for B4
B9: 52H5D3B8-7# chimeric mAb (antibody, V domains shown)
VH: QVQLQQSGAELVRPGASVKLSCKALGYTFTDYEMHWVKQTPVHGLEWIGAIHPGSGGTAYNQKFKGKATLTADKFSSTGYMELSSLTSEDSAVYYCTRYYSYAYWGQGTLVTVSA
VL: DVVMTQTPLSLPVSLGDQASISCRSSQSLVHSNGNTYLQWYLQKPGQSPKLLIYKVSNRFSGVPDRFSGSGSGTDFILKISRVEAEDLGVYFCSQSTHVPYTFGGGTKLEIK
notes: as for B4
B10: 52H5D3B8-2# chimeric mAb (antibody, V domains shown)
VH: QVQLQQSGAELVRPGASVKLSCKALGYTFTDYEMHWVKQTPVHGLEWIGAIHPGSGGTAYNQKFKGKATLTADKFSSTGYMELSSLTSEDSAVYYCTRFYSFAYWGQGTLVTVSA
VL: DVVMTQTPLSLPVSLGDQASISCRSSQSLVHSNGNTYLQWYLQKPGQSPKLLIYKVSNRFSGVPDRFSGSGSGTDFILKISRVEAEDLGVYFCSQSIHVPYTFGGGTKLEIK
notes: as for B4
B11: 52H5D3B8-9# chimeric mAb (antibody, V domains shown)
VH: QVQLQQSGAELVRPGASVKLSCKALGYTFTDYEMHWVKQTPVHGLEWIGAIHPGSGGTAYNQKFKGKATLTADKFSSTGYMELSSLTSEDSAVYYCTRFYSFAYWGQGTLVTVSA
VL: DVVMTQTPLSLPVSLGDQASISCRSSQSLVHSNGNTYLQWYLQKPGQSPKLLIYKVSNRFSGVPDRFSGSGSGTDFILKISRVEAEDLGVYFCSQSTHVPYTFGGGTKLEIK
notes: as for B4
B12: 52H5D3B8-11# chimeric mAb (antibody, V domains shown)
VH: QVQLQQSGAELVRPGASVKLSCKALGYTFTDYEMHWVKQTPVHGLEWIGAIHPGSGGTAYNQKFKGKATLTADKFSSTGYMELSSLTSEDSAVYYCTRFYSFAYWGQGTLVTVSA
VL: DVVMTQTPLSLPVSLGDQASISCRSSQSLVHSNGNTYLQWYLQKPGQSPKLLIYKVSNRFSGVPDRFSGSGSGTDFILKISRVEAEDLGVYFCFQSTHVPYTFGGGTKLEIK
notes: as for B4
B13: 52H5D3B8-10# chimeric mAb (antibody, V domains shown)
VH: QVQLQQSGAELVRPGASVKLSCKALGYTFTDYEMHWVKQTPVHGLEWIGAIHPGSGGTAYNQKFKGKATLTADKFSSTGYMELSSLTSEDSAVYYCTRFYSYAYWGQGTLVTVSA
VL: DVVMTQTPLSLPVSLGDQASISCRSSQSLVHSNGNTYLQWYLQKPGQSPKLLIYKVSNRFSGVPDRFSGSGSGTDFILKISRVEAEDLGVYFCFQSTHVPYTFGGGTKLEIK
notes: as for B4
B14: 52H5D3B8-4# chimeric mAb (antibody, V domains shown)
VH: QVQLQQSGAELVRPGASVKLSCKALGYTFTDYEMHWVKQTPVHGLEWIGAIHPGSGGTAYNQKFKGKATLTADKFSSTGYMELSSLTSEDSAVYYCTRFYSYAYWGQGTLVTVSA
VL: DVVMTQTPLSLPVSLGDQASISCRSSQSLVHSNGNTYLQWYLQKPGQSPKLLIYKVSNRFSGVPDRFSGSGSGTDFILKISRVEAEDLGVYFCSQSTHVPYTFGGGTKLEIK
notes: as for B4
B15: 172B4E9 mouse monoclonal antibody (antibody, V domains shown)
VH: QVQLQQSGAELVRPGASVTLSCKASGYTFTDYEIHWVKQTPVHGLEWIGAIDPATGDTAYTQKFKGKAILTADTSSNTVYMELRGLTSEDSAVHFCTRFYSYAYWGQGTLVTVSA
VL: DVVMTQTPLSLPVSLGDQASISCRSSQSLVHTNGHTYLQWYLQKSGQSPRLLIFKVSNRFSGVPDRFSGSGSGTDFKLKISRVEAEDLGVYFCSQSTHVPYTFGGGTKLEIK
notes: mouse hybridoma antibody
B16: 152E9F7 mouse monoclonal antibody (antibody, V domains shown)
VH: QVQLQQSGAELVRPGASVTLSCKASGYTFTDYEIHWVKQTPVHGLEWIGAIDPETGDTAYTQKFKGKAILTADKSSNTVYMELRSLTSEDSAVYYCTRFYSYAYWGQGTLVTVSA
VL: DVVMTQTPLSLPVSLGDQASISCRSSQSLVHTNGHTYLQWYLQKSGQSPKLLIYKVSNRFSGVPDRFSGSGSGTDFTLKISRVEAEDLGVYFCSQSTHVPYTFGGGTKLEIK
notes: mouse hybridoma antibody

Legend:
[1] = target: T1, human GPC3-his tag protein (human, UniProt P51654 25-559, limits assumed); test: SPR Biacore 8K, mAb captured on CM5, single dose GPC3-his
T1 construct: recombinant soluble antigen used as analyte in all Biacore runs; also called recombinant GPC3 protein; rhGPC3-His; not shown: His tag
Method: The binding of mouse monoclonal antibodies to human GPC3-his was tested with Biacore using a capture method. The antibodies were captured using CM5 sensor chip. A single dose of human GPC3-his tag protein was injected over captured antibody for 2 mins at a flow rate of 30 μl/min. The antigen was allowed to dissociate for 360 s. All the experiments were carried out on a Biacore 8K. Data analysis was carried out using Biacore 8K evaluation software.

human GPC3 on cells = target: T2, human GPC3 on cells (human, UniProt P51654 25-554); test: FACS, GPC3-CHOK1 cells
T2 construct: whole, on cells; over-expressed on CHOK1 cells or endogenous on HEPG2, Hep3B and Huh-7 hepatocellular carcinoma cells; the cell line is named under assay; also called GPC3-CHOK1 cells; human GPC3 over-expressed CHOK1 cells
Method: Briefly, GPC3-CHOK1 cells were firstly incubated with Fc blocking reagent at 4° C. for 15 mins. Cells were washed by FACS buffer and divided to each well with 3-fold serially diluted 52H5D3B8, 52H5D3B8-1 #, 52H5D3B8-2 #, 52H5D3B8-3 #, 52H5D3B8-4 #, 52H5D3B8-5 #, 52H5D3B8-6 #, 52H5D3B8-7 #, 52H5D3B8-8 #, 52H5D3B8-9 #, 52H5D3B8-10 #, 52H5D3B8-11 #, 52H5D3B8-12 #, 52H5D3B8-13 #, 52H5D3B8-14 # and 52H5D3B8-15# chimeric mAbs starting at 30 μg/mL at 4° C. for 60 mins. Cells were washed by FACS buffer and fixed with 2% PFA at RT for 15 mins. […] Samples were washed twice with FACS buffer.

[2] = target: T1, human GPC3-his tag protein; test: SPR Biacore 8K, mAb captured, one or two doses GPC3-his
Method: The binding of the optimized antibodies of 52H5D3B8 mAb to human GPC3-his was tested with Biacore using a capture method. A single dose or two doses of human GPC3-his tag protein was injected over captured antibody. All the experiments were carried out on a Biacore 8K. Data analysis was carried out using Biacore 8K evaluation software.

Binder	Kd [1] [nM]	koff [1] [s⁻¹]	kon [1] [M⁻¹ s⁻¹]	EC50 (human GPC3 on cells) [µg/mL]	Kd [2] [nM]	koff [2] [s⁻¹]	kon [2] [M⁻¹ s⁻¹]
B1	1.57	0.000412	262000	–	–	–	–
B2	1.39	0.000317	228000	–	–	–	–
B3	1.22	0.000199	162000	–	–	–	–
B4	–	–	–	0.104	0.74	0.000288	390000
B5	–	–	–	0.0869	1.06	0.000556	525000
B6	0.755	0.000169	223000	–	–	–	–
B7	–	–	–	0.0919	2.03	0.001	494000
B8	–	–	–	0.405	4.12	0.000412	100000
B9	–	–	–	0.232	3.97	0.000617	155000
B10	–	–	–	0.149	5.31	0.00121	228000
B11	–	–	–	0.247	12.9	0.00216	167000
B12	–	–	–	0.104	10.9	0.00354	326000
B13	–	–	–	0.176	4.05	0.00118	291000
B14	–	–	–	0.0986	1.72	0.000578	335000
B15	0.446	9.01e-05	202000	–	–	–	–
B16	0.881	0.000162	184000	–	–	–	–
